Reference: the Human Domainome abundance scans (Beltran et al. 2025)
± gives the uncertainty stated by the source.

B1: Far upstream element-binding protein 2, residues 142 to 214; numbered along this chain, Q92945 (parent)
chain: RTSMTEEYRVPDGMVGLIIGRGGEQINKIQQDSGCKVQISPDSGGLPERSVSLTGAPESVQKAKMMLDDIVSR

Variants of: B1
Assay: abundance fitness (aPCA) (normalised: wild type 0, dead -1); higher = more abundant; growth selection in yeast, the domain comes from the species named
Settings: Homo sapiens

Abundance fitness: each site, then its substitutions
I39: L -0.091 ± 0.043; N -0.578 ± 0.11; P -0.477 ± 0.052; Q -0.543 ± 0.064; R -0.645 ± 0.044; S -0.572 ± 0.053; V -0.045 ± 0.046; W -0.304 ± 0.055; Y -0.386 ± 0.085
S40: A 0.027 ± 0.042; C -0.057 ± 0.067; D -0.076 ± 0.067; E -0.013 ± 0.047; G -0.042 ± 0.037; H -0.078 ± 0.072; I -0.069 ± 0.095; K -0.007 ± 0.065; L 0.01 ± 0.049; M -0.024 ± 0.068; N 0.097 ± 0.089; P -0.011 ± 0.053; Q 0.009 ± 0.055; R -0.029 ± 0.037; T -0.059 ± 0.053; V 0.025 ± 0.044; W -0.207 ± 0.055; Y -0.187 ± 0.089
P41: A 0.007 ± 0.047; C -0.017 ± 0.084; D 0.032 ± 0.087; E -0.04 ± 0.055; F -0.122 ± 0.095; G -0.055 ± 0.044; H 0.035 ± 0.091; I -0.024 ± 0.094; L -0.172 ± 0.048; M -0.09 ± 0.067; N -0.141 ± 0.083; R -0.061 ± 0.043; S -0.017 ± 0.049; T -0.05 ± 0.056; W -0.299 ± 0.06; Y -0.099 ± 0.092
D42: A -0.013 ± 0.049; E -0.007 ± 0.053; F -0.163 ± 0.085; G -0.097 ± 0.042; K -0.014 ± 0.067; L -0.232 ± 0.045; M -0.15 ± 0.057; N -0.069 ± 0.092; P -0.006 ± 0.051; R -0.11 ± 0.039; S -0.038 ± 0.047; T 0.007 ± 0.053; V -0.125 ± 0.044; W -0.203 ± 0.055; Y -0.061 ± 0.085
S43: C -0.135 ± 0.066; D -0.031 ± 0.06; E -0.082 ± 0.053; F -0.328 ± 0.088; G -0.034 ± 0.041; H -0.113 ± 0.065; I -0.098 ± 0.086; K -0.1 ± 0.064; L -0.116 ± 0.048; M -0.101 ± 0.07; N -0.046 ± 0.075; P -0.083 ± 0.044; Q -0.027 ± 0.052; R -0.023 ± 0.041; T -0.012 ± 0.048; V -0.11 ± 0.049; W -0.212 ± 0.054; Y -0.189 ± 0.081
G44: A -0.051 ± 0.045; C -0.105 ± 0.068; D 0.02 ± 0.066; E 0.008 ± 0.054; F -0.194 ± 0.096; H -0.083 ± 0.069; I -0.339 ± 0.13; K 0.019 ± 0.071; L -0.125 ± 0.048; M 0.007 ± 0.069; P -0.137 ± 0.054; Q 0.034 ± 0.062; R -0.071 ± 0.04; S -0.09 ± 0.047; T -0.017 ± 0.051; V -0.133 ± 0.045; W -0.338 ± 0.06; Y -0.084 ± 0.12
G45: A -0.211 ± 0.05; C -0.168 ± 0.064; D -0.102 ± 0.07; E -0.064 ± 0.054; F -0.218 ± 0.081; H -0.011 ± 0.095; K -0.207 ± 0.066; L -0.193 ± 0.05; M -0.208 ± 0.063; N -0.11 ± 0.076; Q -0.1 ± 0.063; R -0.164 ± 0.042; S -0.113 ± 0.05; T -0.079 ± 0.053; V -0.107 ± 0.046; W -0.351 ± 0.056; Y -0.299 ± 0.1
L46: A -0.056 ± 0.051; C 0.031 ± 0.06; D -0.045 ± 0.06; E -0.037 ± 0.049; F -0.097 ± 0.067; G 0.07 ± 0.039; H -0.117 ± 0.085; I -0.145 ± 0.07; K 0.061 ± 0.063; M -0.033 ± 0.055; N -0.144 ± 0.088; P -0.145 ± 0.06; Q -0.052 ± 0.06; S 0.004 ± 0.044; T -0.002 ± 0.05; V -0.104 ± 0.042; W -0.171 ± 0.047; Y -0.153 ± 0.074
P47: A 0.02 ± 0.048; C -0.014 ± 0.076; D -0.002 ± 0.072; E -0.06 ± 0.06; F -0.14 ± 0.081; G 0.002 ± 0.048; I -0.168 ± 0.079; K -0.016 ± 0.069; L -0.094 ± 0.046; M -0.009 ± 0.07; N -0.13 ± 0.096; Q -0.034 ± 0.06; R -0.104 ± 0.043; S -0.021 ± 0.049; T -0.018 ± 0.057; V -0.146 ± 0.057; W -0.32 ± 0.059; Y -0.028 ± 0.09
E48: A -0.063 ± 0.043; C -0.169 ± 0.069; D -0.033 ± 0.069; F -0.109 ± 0.075; G -0.044 ± 0.039; H -0.007 ± 0.076; I -0.157 ± 0.085; K -0.158 ± 0.071; L -0.12 ± 0.041; M -0.047 ± 0.057; N -0.161 ± 0.12; P -0.065 ± 0.056; Q -0.038 ± 0.059; R -0.12 ± 0.039; S -0.024 ± 0.045; T 0.006 ± 0.048; V -0.103 ± 0.047; Y 0.103 ± 0.079
R49: A -0.021 ± 0.057; D -0.386 ± 0.088; E -0.267 ± 0.056; H 0.025 ± 0.089; K -0.092 ± 0.063; M -0.127 ± 0.062; N -0.104 ± 0.13; P -0.067 ± 0.059; Q -0.08 ± 0.057; S -0.026 ± 0.052; V -0.139 ± 0.047; W -0.202 ± 0.055; Y -0.379 ± 0.13
S50: A -0.04 ± 0.047; C 0.043 ± 0.071; D -0.289 ± 0.074; E -0.193 ± 0.059; F -0.218 ± 0.092; G -0.071 ± 0.043; I 0.126 ± 0.11; K 0.044 ± 0.069; L -0.067 ± 0.045; M -0.125 ± 0.064; N -0.085 ± 0.11; P -0.159 ± 0.055; Q -0.139 ± 0.057; R 0.018 ± 0.042; T 0.008 ± 0.055; V -0.002 ± 0.046; W -0.118 ± 0.061; Y -0.137 ± 0.085
V51: A -0.503 ± 0.045; C -0.189 ± 0.075; D -0.834 ± 0.083; E -0.84 ± 0.076; F -0.089 ± 0.088; G -0.832 ± 0.048; H -1.3 ± 0.23; I 0.117 ± 0.085; L 0.019 ± 0.052; M -0.122 ± 0.065; P -0.847 ± 0.08; Q -0.947 ± 0.11; R -0.944 ± 0.054; S -0.837 ± 0.067; T -0.704 ± 0.068; W -0.487 ± 0.055; Y -0.5 ± 0.1
S52: A -0.094 ± 0.044; C 0.027 ± 0.058; D -0.312 ± 0.067; E 0 ± 0.048; F 0.007 ± 0.074; G -0.249 ± 0.04; H 0.043 ± 0.075; I 0 ± 0.083; L 0.059 ± 0.041; M 0.047 ± 0.06; N -0.177 ± 0.093; P -0.874 ± 0.065; Q -0.011 ± 0.055; R 0.01 ± 0.036; T 0.068 ± 0.049; V 0.041 ± 0.041; W 0.01 ± 0.05; Y 0.097 ± 0.083
L53: A -0.817 ± 0.056; C -0.379 ± 0.082; D -0.72 ± 0.1; E -0.869 ± 0.063; F -0.491 ± 0.11; H -0.733 ± 0.12; I -0.09 ± 0.11; K -1 ± 0.098; N -0.634 ± 0.18; P -0.998 ± 0.076; Q -0.784 ± 0.083; R -0.854 ± 0.048; S -0.754 ± 0.061; T -0.648 ± 0.062; V -0.369 ± 0.047; W -0.994 ± 0.08; Y -1.04 ± 0.23
T54: A -0.255 ± 0.047; C -0.2 ± 0.068; D -0.424 ± 0.081; E -0.135 ± 0.054; F -0.278 ± 0.089; G -0.586 ± 0.049; H -0.076 ± 0.077; I -0.205 ± 0.078; K -0.16 ± 0.074; L -0.256 ± 0.047; M -0.182 ± 0.062; N -0.327 ± 0.088; P -0.855 ± 0.057; Q -0.158 ± 0.06; R -0.256 ± 0.041; S -0.059 ± 0.045; V -0.058 ± 0.046; W -0.393 ± 0.061; Y 0.028 ± 0.092
G55: A -0.882 ± 0.064; C -0.818 ± 0.1; D -0.83 ± 0.087; E -0.927 ± 0.09; F -1.41 ± 0.28; H -0.887 ± 0.12; I -1.5 ± 0.28; K -0.681 ± 0.093; L -1.18 ± 0.084; M -1.18 ± 0.16; N -0.922 ± 0.25; P -0.937 ± 0.087; Q -0.875 ± 0.098; R -0.965 ± 0.054; T -0.732 ± 0.075; V -1.17 ± 0.072; W -1.83 ± 0.19; Y -0.878 ± 0.19
A56: C 0.088 ± 0.074; D -0.025 ± 0.077; E -0.003 ± 0.058; F -0.315 ± 0.084; G -0.114 ± 0.041; H 0.026 ± 0.081; I -0.126 ± 0.11; K -0.153 ± 0.075; L -0.1 ± 0.048; M -0.154 ± 0.08; N -0.272 ± 0.11; Q -0.1 ± 0.063; R 0.012 ± 0.041; S -0.008 ± 0.052; T 0.113 ± 0.051; V -0.099 ± 0.051; W -0.281 ± 0.057; Y -0.091 ± 0.095
P57: A -0.101 ± 0.049; C -0.432 ± 0.082; D -0.609 ± 0.091; E -0.259 ± 0.059; F -0.357 ± 0.084; G -0.434 ± 0.048; H -0.213 ± 0.084; I -0.289 ± 0.099; K -0.185 ± 0.071; L -0.316 ± 0.049; M -0.225 ± 0.066; R -0.141 ± 0.039; S -0.245 ± 0.05; T -0.325 ± 0.061; V -0.192 ± 0.049; W -0.24 ± 0.059; Y -0.402 ± 0.099
E58: A -0.088 ± 0.05; C -0.305 ± 0.08; D -0.035 ± 0.088; F -0.405 ± 0.11; G -0.124 ± 0.042; H -0.071 ± 0.087; K -0.065 ± 0.068; M -0.125 ± 0.061; N -0.275 ± 0.11; P -0.305 ± 0.052; Q -0.122 ± 0.059; R -0.198 ± 0.039; S -0.102 ± 0.047; T -0.174 ± 0.055
